In patent US20050154187A1:

Columns and labels:
[1] = target: soluble VEGF receptor Flt-1 (sFlt-1) (UniProt P17948); test: ELISA, plate-coated sFlt-1, detection with DHFR-specific mAb
[2] = target: soluble VEGF receptor KDR (sKDR) (UniProt P35968); test: ELISA, plate-coated sKDR, detection with DHFR-specific mAb

dihydrofolate reductase (DHFR), negative control protein, sequence (P00375 1-186 limits assumed): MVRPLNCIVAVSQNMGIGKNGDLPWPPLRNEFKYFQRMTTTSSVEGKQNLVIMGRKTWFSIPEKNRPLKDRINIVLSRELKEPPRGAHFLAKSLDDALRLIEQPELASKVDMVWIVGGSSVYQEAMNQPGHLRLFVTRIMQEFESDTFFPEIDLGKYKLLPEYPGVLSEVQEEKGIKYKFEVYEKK

- OD492 nm [1]: 0.088 OD492 nm
- OD492 nm [2]: 0.074 OD492 nm
Substance: dihydrofolate reductase (DHFR), negative control protein (from UniProt P00375 1-186) (enzyme)
